The values that follow come from patent US20040072207A1 (WHITEHEAD INSTITUTE FOR BIOMEDICAL RESEARCH, published 2004).

B1: HA-raptor mut2 (261DLF263-AAA) (other, not shown: small tags and cut ends)
chain: MESEMLQSPLLGLGEEDEADLTDWNLPLAFMKKRHCEKIEGSKSLAQSWRMKDRMKTVSVALVLCLNVGVDPPDVVKTTPCARLECWIDPLSMGPQKALETIGANLQKQYENWQPRARYKQSLDPTVDEVKKLCTSLRRNAKEERVLFHYNGHGVPRPTVNGEVWVFNKNYTQYIPLSIYDLQTWMGSPSIFVYDCSNAGLIVKSFKQFALQREQELEVAAINPNHPLAQMPLPPSMKNCIQLAACEATELLPMIPDLPAAAATSCLTTPIKIALRWFCMQKCVSLVPGVTLDLIEKIPGRLNDRRTPLGELNWIFTAITDTIAWNVLPRDLFQKLFRQDLLVASLFRNFLLAERIMRSYNCTPVSSPRLPPTYMHAMWQAWDLAVDICLSQLPTIIEEGTAFRHSPFFAEQLTAFQVWLTMGVENRNPPEQLPIVLQVLLSQVHRLRALDLLGRFLDLGPWAVSLALSVGIFPYVLKLLQSSARELRPLLVFIWAKILAVDSSCQADLVKDNGHKYFLSVLADPYMPAEHRTMTAFILAVIVNSYHTGQEACLQGNLIAICLEQLNDPHPLLRQWVAICLGRIWQNFDSARWCGVRDSAHEKLYSLLSDPIPEVRCAAVFALGTFVGNSAERTDHSTTIDHNVAMMLAQLVSDGSPMVRKELVVALSHLVVQYESNFCTVALQFIEEEKNYALPSPATTEGGSLTPVRDSPCTPRLRSVSSYGNIRAVATARSLNKSLQNLSLTEESGGAVAFSPGNLSTSSSASSTLGSPENEEHILSFETIDKMRRASSYSSLNSLIGVSFNSVYTQIWRVLLHLAADPYPEVSDVAMKVLNSIAYKATVNARPQRVLDTSSLTQSAPASPTNKGVHIHQAGGSPPASSTSSSSLTNDVAKQPVSRDLPSGRPGTTGPAGAQYTPHSHQFPRTRKMFDKGPEQTADDADDAAGHKSFISATVQTGFCDWSARYFAQPVMKIPEEHDLESQIRKEREWRFLRNSRVRRQAQQVIQKGITRLDDQIFLNRNPGVPSVVKFHPFTPCIAVADKDSICFWDWEKGEKLDYFHNGNPRYTRVTAMEYLNGQDCSLLLTATDDGAIRVWKNFADLEKNPEMVTAWQGLSDMLPTTRGAGMVVDWEQETGLLMSSGDVRIVRIWDTDREMKVQDIPTGADSCVTSLSCDSHRSLIVAGLGDGSIRVYDRRMALSECRVMTYREHTAWVVKASLQKRPDGHIVSVSVNGDVRIFDPRMPESVNVLQIVKGLTALDIHPQADLIACGSVNQFTAIYNSSGELINNIKYYDGFMGQRVGAISCLAFHPHWPHLAVGSNDYYISVYSVEKRVR
B2: HA-raptor mut3 (313NWIF316-AAAA) (other, not shown: small tags and cut ends)
chain: MESEMLQSPLLGLGEEDEADLTDWNLPLAFMKKRHCEKIEGSKSLAQSWRMKDRMKTVSVALVLCLNVGVDPPDVVKTTPCARLECWIDPLSMGPQKALETIGANLQKQYENWQPRARYKQSLDPTVDEVKKLCTSLRRNAKEERVLFHYNGHGVPRPTVNGEVWVFNKNYTQYIPLSIYDLQTWMGSPSIFVYDCSNAGLIVKSFKQFALQREQELEVAAINPNHPLAQMPLPPSMKNCIQLAACEATELLPMIPDLPADLFTSCLTTPIKIALRWFCMQKCVSLVPGVTLDLIEKIPGRLNDRRTPLGELAAAATAITDTIAWNVLPRDLFQKLFRQDLLVASLFRNFLLAERIMRSYNCTPVSSPRLPPTYMHAMWQAWDLAVDICLSQLPTIIEEGTAFRHSPFFAEQLTAFQVWLTMGVENRNPPEQLPIVLQVLLSQVHRLRALDLLGRFLDLGPWAVSLALSVGIFPYVLKLLQSSARELRPLLVFIWAKILAVDSSCQADLVKDNGHKYFLSVLADPYMPAEHRTMTAFILAVIVNSYHTGQEACLQGNLIAICLEQLNDPHPLLRQWVAICLGRIWQNFDSARWCGVRDSAHEKLYSLLSDPIPEVRCAAVFALGTFVGNSAERTDHSTTIDHNVAMMLAQLVSDGSPMVRKELVVALSHLVVQYESNFCTVALQFIEEEKNYALPSPATTEGGSLTPVRDSPCTPRLRSVSSYGNIRAVATARSLNKSLQNLSLTEESGGAVAFSPGNLSTSSSASSTLGSPENEEHILSFETIDKMRRASSYSSLNSLIGVSFNSVYTQIWRVLLHLAADPYPEVSDVAMKVLNSIAYKATVNARPQRVLDTSSLTQSAPASPTNKGVHIHQAGGSPPASSTSSSSLTNDVAKQPVSRDLPSGRPGTTGPAGAQYTPHSHQFPRTRKMFDKGPEQTADDADDAAGHKSFISATVQTGFCDWSARYFAQPVMKIPEEHDLESQIRKEREWRFLRNSRVRRQAQQVIQKGITRLDDQIFLNRNPGVPSVVKFHPFTPCIAVADKDSICFWDWEKGEKLDYFHNGNPRYTRVTAMEYLNGQDCSLLLTATDDGAIRVWKNFADLEKNPEMVTAWQGLSDMLPTTRGAGMVVDWEQETGLLMSSGDVRIVRIWDTDREMKVQDIPTGADSCVTSLSCDSHRSLIVAGLGDGSIRVYDRRMALSECRVMTYREHTAWVVKASLQKRPDGHIVSVSVNGDVRIFDPRMPESVNVLQIVKGLTALDIHPQADLIACGSVNQFTAIYNSSGELINNIKYYDGFMGQRVGAISCLAFHPHWPHLAVGSNDYYISVYSVEKRVR
B3: HA-raptor mut 9 (1191RVYDRR1196-DAAADD) (other, not shown: small tags and cut ends)
chain: MESEMLQSPLLGLGEEDEADLTDWNLPLAFMKKRHCEKIEGSKSLAQSWRMKDRMKTVSVALVLCLNVGVDPPDVVKTTPCARLECWIDPLSMGPQKALETIGANLQKQYENWQPRARYKQSLDPTVDEVKKLCTSLRRNAKEERVLFHYNGHGVPRPTVNGEVWVFNKNYTQYIPLSIYDLQTWMGSPSIFVYDCSNAGLIVKSFKQFALQREQELEVAAINPNHPLAQMPLPPSMKNCIQLAACEATELLPMIPDLPADLFTSCLTTPIKIALRWFCMQKCVSLVPGVTLDLIEKIPGRLNDRRTPLGELNWIFTAITDTIAWNVLPRDLFQKLFRQDLLVASLFRNFLLAERIMRSYNCTPVSSPRLPPTYMHAMWQAWDLAVDICLSQLPTIIEEGTAFRHSPFFAEQLTAFQVWLTMGVENRNPPEQLPIVLQVLLSQVHRLRALDLLGRFLDLGPWAVSLALSVGIFPYVLKLLQSSARELRPLLVFIWAKILAVDSSCQADLVKDNGHKYFLSVLADPYMPAEHRTMTAFILAVIVNSYHTGQEACLQGNLIAICLEQLNDPHPLLRQWVAICLGRIWQNFDSARWCGVRDSAHEKLYSLLSDPIPEVRCAAVFALGTFVGNSAERTDHSTTIDHNVAMMLAQLVSDGSPMVRKELVVALSHLVVQYESNFCTVALQFIEEEKNYALPSPATTEGGSLTPVRDSPCTPRLRSVSSYGNIRAVATARSLNKSLQNLSLTEESGGAVAFSPGNLSTSSSASSTLGSPENEEHILSFETIDKMRRASSYSSLNSLIGVSFNSVYTQIWRVLLHLAADPYPEVSDVAMKVLNSIAYKATVNARPQRVLDTSSLTQSAPASPTNKGVHIHQAGGSPPASSTSSSSLTNDVAKQPVSRDLPSGRPGTTGPAGAQYTPHSHQFPRTRKMFDKGPEQTADDADDAAGHKSFISATVQTGFCDWSARYFAQPVMKIPEEHDLESQIRKEREWRFLRNSRVRRQAQQVIQKGITRLDDQIFLNRNPGVPSVVKFHPFTPCIAVADKDSICFWDWEKGEKLDYFHNGNPRYTRVTAMEYLNGQDCSLLLTATDDGAIRVWKNFADLEKNPEMVTAWQGLSDMLPTTRGAGMVVDWEQETGLLMSSGDVRIVRIWDTDREMKVQDIPTGADSCVTSLSCDSHRSLIVAGLGDGSIDAAADDMALSECRVMTYREHTAWVVKASLQKRPDGHIVSVSVNGDVRIFDPRMPESVNVLQIVKGLTALDIHPQADLIACGSVNQFTAIYNSSGELINNIKYYDGFMGQRVGAISCLAFHPHWPHLAVGSNDYYISVYSVEKRVR
B4: HA-raptor mut 7 (738SLQN741-PAAA) (other, not shown: small tags and cut ends)
chain: MESEMLQSPLLGLGEEDEADLTDWNLPLAFMKKRHCEKIEGSKSLAQSWRMKDRMKTVSVALVLCLNVGVDPPDVVKTTPCARLECWIDPLSMGPQKALETIGANLQKQYENWQPRARYKQSLDPTVDEVKKLCTSLRRNAKEERVLFHYNGHGVPRPTVNGEVWVFNKNYTQYIPLSIYDLQTWMGSPSIFVYDCSNAGLIVKSFKQFALQREQELEVAAINPNHPLAQMPLPPSMKNCIQLAACEATELLPMIPDLPADLFTSCLTTPIKIALRWFCMQKCVSLVPGVTLDLIEKIPGRLNDRRTPLGELNWIFTAITDTIAWNVLPRDLFQKLFRQDLLVASLFRNFLLAERIMRSYNCTPVSSPRLPPTYMHAMWQAWDLAVDICLSQLPTIIEEGTAFRHSPFFAEQLTAFQVWLTMGVENRNPPEQLPIVLQVLLSQVHRLRALDLLGRFLDLGPWAVSLALSVGIFPYVLKLLQSSARELRPLLVFIWAKILAVDSSCQADLVKDNGHKYFLSVLADPYMPAEHRTMTAFILAVIVNSYHTGQEACLQGNLIAICLEQLNDPHPLLRQWVAICLGRIWQNFDSARWCGVRDSAHEKLYSLLSDPIPEVRCAAVFALGTFVGNSAERTDHSTTIDHNVAMMLAQLVSDGSPMVRKELVVALSHLVVQYESNFCTVALQFIEEEKNYALPSPATTEGGSLTPVRDSPCTPRLRSVSSYGNIRAVATARSLNKPAAALSLTEESGGAVAFSPGNLSTSSSASSTLGSPENEEHILSFETIDKMRRASSYSSLNSLIGVSFNSVYTQIWRVLLHLAADPYPEVSDVAMKVLNSIAYKATVNARPQRVLDTSSLTQSAPASPTNKGVHIHQAGGSPPASSTSSSSLTNDVAKQPVSRDLPSGRPGTTGPAGAQYTPHSHQFPRTRKMFDKGPEQTADDADDAAGHKSFISATVQTGFCDWSARYFAQPVMKIPEEHDLESQIRKEREWRFLRNSRVRRQAQQVIQKGITRLDDQIFLNRNPGVPSVVKFHPFTPCIAVADKDSICFWDWEKGEKLDYFHNGNPRYTRVTAMEYLNGQDCSLLLTATDDGAIRVWKNFADLEKNPEMVTAWQGLSDMLPTTRGAGMVVDWEQETGLLMSSGDVRIVRIWDTDREMKVQDIPTGADSCVTSLSCDSHRSLIVAGLGDGSIRVYDRRMALSECRVMTYREHTAWVVKASLQKRPDGHIVSVSVNGDVRIFDPRMPESVNVLQIVKGLTALDIHPQADLIACGSVNQFTAIYNSSGELINNIKYYDGFMGQRVGAISCLAFHPHWPHLAVGSNDYYISVYSVEKRVR
notes: also called mutant 7

This experiment concerns the target mTOR (mammalian target of rapamycin), endogenous protein of human cell lines (human, UniProt P42345 1-2549). Description: anti-HA immunoprecipitates from transfected HEK293T cells, mTOR western blot (FIG. 6B). The protocol: 3 million HEK293T cells in 6-cm dishes were transfected with plasmid constructs and amounts indicated in the Figure legends using the Lipofectamine 2000 transfection reagent (Life Technology). 24 hours after DNA addition, cells were rinsed once with PBS and lysed in 300 μl of ice-cold Buffer B. Immune complexes were prepared from cleared supernatants using 3 μg polyclonal anti-myc or monoclonal anti-HA antibodies and 20 μl of a 50% slurry protein G-Sepharose. After a 3 hour incubation, immuneprecipitates were washed six times with Buffer B and twice with Wash Buffer 2. Bound proteins were eluted in 1× sample buffer, and mTOR or HA- or myc-tagged proteins were detected by immunoblotting as described (Burnett et al., PNAS 95:1432-143 (1998)).
For B1, the binding result was “no binding”.

Regarding B2, the binding result is recorded as “no binding”. As to B3, the binding result is on record as “no binding”. Regarding B4, the binding result is reported as “binds”.
